Numbered stars: 1 amine (or outer) side, 2 acyl side, 3 side chain; on linkers, the order of the positions; unused ones are H or OH. Bridge positions count the residues as written; N and C are the ends. Ends that are not written are not given here. Phenylene(1,4-NHCOCH2)2 = O=C(C[*:1])Nc1ccc(NC(=O)C[*:2])cc1
Experiments:
[1] = target: T1, PPIA (Homo sapiens, UniProt P62937); assay: Phage Library Screening with NGS, PPIA; assay type: binding
T1 construct: Full length PPIA (residues 1-165) with an N-terminal 6×his-yBBR-TEV tag; 6×his-yBBR-TEV (N); made in house; host or cells: E. coli BL21 (DE3) CodonPlus RIPL
T1 sequence (P62937 whole entry, the tested form may be a part): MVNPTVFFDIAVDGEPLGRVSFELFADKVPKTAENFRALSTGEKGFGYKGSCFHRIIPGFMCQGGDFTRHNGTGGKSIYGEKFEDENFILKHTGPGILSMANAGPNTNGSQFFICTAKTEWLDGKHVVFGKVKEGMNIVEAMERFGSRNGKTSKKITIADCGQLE

[2] = target: T2, MDM2 (Homo sapiens, UniProt Q00987); assay: Naive Library Presenter Screening (phage, NGS), MDM2; assay type: binding; conditions: for interaction data, BLANK: Blank = Media only
T2 construct: made in house
T2 sequence (Q00987 25-109): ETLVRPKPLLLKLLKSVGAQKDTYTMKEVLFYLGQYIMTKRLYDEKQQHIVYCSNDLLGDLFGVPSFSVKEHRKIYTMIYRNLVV

[3] = target concentration 1000, first column
[4] = target concentration 1000, second column
[5] = MDM2 target concentration 10 nM
[6] = MDM2 target concentration 30 nM
[7] = MDM2 target concentration 100 nM
[8] = MDM2 target concentration 300 nM
[9] = MDM2 target concentration 1000 nM, first column
[10] = MDM2 target concentration 1000 nM, second column
[11] = MDM2 clusters (C82, C85), first column
[12] = MDM2 clusters (C82, C85), second column
[13] = MDM2 clusters (C82, C85), target concentration 10 nM
[14] = MDM2 clusters (C82, C85), target concentration 30 nM
[15] = MDM2 clusters (C82, C85), target concentration 100 nM
[16] = MDM2 clusters (C82, C85), target concentration 300 nM
[17] = MDM2 clusters (C82, C85), target concentration 1000 nM, first column
[18] = MDM2 clusters (C82, C85), target concentration 1000 nM, second column

Sequence | phage screen counts, Target Concentration 10 [1] | phage screen counts, Target Concentration 30 [1] | phage screen counts, Target Concentration 100 [1] | phage screen counts, Target Concentration 300 [1] | phage screen counts, Target Concentration 1000 [1, 3] | phage screen counts, Target Concentration 1000 [1, 4] | further results
PDCHIRAYVCH (Ac-PDCHIRAYVCH-NH2; bridge 3-10; also: Cys-Cys staple, linker not named) | 0 | 0 | 1 | 8 | 11 | 120 | –
DPAQHDCHVAAYQCIWE | 0 | 52 | 273 | 416 | 616 | 456 | –
PNCHLYAWECY | 0 | 0 | 0 | 4 | 5 | 19 | –
PHDCHVNAWYC | 0 | 0 | 0 | 26 | 21 | 45 | –
PFCHIEAYYCW | 0 | 0 | 0 | 14 | 46 | 22 | –
DPAYYDCHIAAYFCRTQ | 16 | 62 | 77 | 106 | 93 | 131 | –
PTCHVQAWYCW | 0 | 0 | 0 | 0 | 10 | 29 | –
DPARADCHVAAYWCYHR | 0 | 1 | 6 | 6 | 7 | 6 | –
PDCHIRAYMCN | 0 | 0 | 0 | 0 | 20 | 26 | –
PTCHIHAYHCY | 0 | 0 | 3 | 5 | 31 | 8 | –
DPASYDCHVAAYFCNFA | 6 | 10 | 176 | 197 | 190 | 227 | –
DPAQLNCHVAAFFCFQS | 0 | 0 | 21 | 27 | 125 | 8 | –
DPAQADCHIAAYLCLFD | 0 | 0 | 10 | 19 | 25 | 18 | –
DPALFDCHIAAYQCIFY | 0 | 0 | 25 | 29 | 20 | 55 | –
DPAFDSCFSAAWDCMYW (linker 7-14 via Phenylene(1,4-NHCOCH2)2 (inferred)) | – | – | – | – | – | – | interaction data at Target Concentration 10 [2, 5]: 3; interaction data at Target Concentration 30 [2, 6]: 0; interaction data at Target Concentration 100 [2, 7]: 27; interaction data at Target Concentration 300 [2, 8]: 92; interaction data at Target Concentration 1000 [2, 9]: 65; interaction data at Target Concentration 1000 [2, 10]: 84
DPARRECMDAAFWCQWV (DPARRECMDAAFWCQWV-NH2; linker 7-14 via Phenylene(1,4-NHCOCH2)2 (inferred)) | – | – | – | – | – | – | interaction data, BLANK [2, 11]: 0; interaction data, BLANK [2, 12]: 0; interaction data at Target Concentration 10 [2, 13]: 0; interaction data at Target Concentration 30 [2, 14]: 53; interaction data at Target Concentration 100 [2, 15]: 106; interaction data at Target Concentration 300 [2, 16]: 232; interaction data at Target Concentration 1000 [2, 17]: 148; interaction data at Target Concentration 1000 [2, 18]: 261
DPASAECFFAAWQCIAT (DPASAECFFAAWQCIAT-NH2; linker 7-14 via Phenylene(1,4-NHCOCH2)2 (inferred)) | – | – | – | – | – | – | interaction data, BLANK [2, 11]: 0; interaction data, BLANK [2, 12]: 0; interaction data at Target Concentration 10 [2, 13]: 0; interaction data at Target Concentration 30 [2, 14]: 8; interaction data at Target Concentration 100 [2, 15]: 28; interaction data at Target Concentration 300 [2, 16]: 27; interaction data at Target Concentration 1000 [2, 17]: 33; interaction data at Target Concentration 1000 [2, 18]: 14
DPAENECFTAAWDCMFF (linker 7-14 via Phenylene(1,4-NHCOCH2)2 (inferred)) | – | – | – | – | – | – | interaction data at Target Concentration 10 [2, 5]: 0; interaction data at Target Concentration 30 [2, 6]: 0; interaction data at Target Concentration 100 [2, 7]: 7; interaction data at Target Concentration 300 [2, 8]: 51; interaction data at Target Concentration 1000 [2, 9]: 70; interaction data at Target Concentration 1000 [2, 10]: 40
DPALMQCTEAAFWCYWE (linker 7-14 via Phenylene(1,4-NHCOCH2)2 (inferred); not fully specified (C-terminus)) | – | – | – | – | – | – | interaction data, BLANK [2, 11]: 0; interaction data, BLANK [2, 12]: 0; interaction data at Target Concentration 10 [2, 13]: 0; interaction data at Target Concentration 30 [2, 14]: 0; interaction data at Target Concentration 100 [2, 15]: 24; interaction data at Target Concentration 300 [2, 16]: 36; interaction data at Target Concentration 1000 [2, 17]: 24; interaction data at Target Concentration 1000 [2, 18]: 32
DPATQQCFQAAWDCQFM (linker 7-14 via Phenylene(1,4-NHCOCH2)2 (inferred)) | – | – | – | – | – | – | interaction data at Target Concentration 10 [2, 5]: 1; interaction data at Target Concentration 30 [2, 6]: 60; interaction data at Target Concentration 100 [2, 7]: 324; interaction data at Target Concentration 300 [2, 8]: 683; interaction data at Target Concentration 1000 [2, 10]: 679
DPAMSNCFMAAWECLIQ (linker 7-14 via Phenylene(1,4-NHCOCH2)2 (inferred); not fully specified (C-terminus)) | – | – | – | – | – | – | interaction data, BLANK [2, 11]: 0; interaction data, BLANK [2, 12]: 0; interaction data at Target Concentration 10 [2, 13]: 49; interaction data at Target Concentration 30 [2, 14]: 104; interaction data at Target Concentration 100 [2, 15]: 206; interaction data at Target Concentration 300 [2, 16]: 192; interaction data at Target Concentration 1000 [2, 17]: 185; interaction data at Target Concentration 1000 [2, 18]: 176
DPADSECFQAASDCQYW (linker 7-14 via Phenylene(1,4-NHCOCH2)2 (inferred)) | – | – | – | – | – | – | interaction data at Target Concentration 10 [2, 5]: 7; interaction data at Target Concentration 30 [2, 6]: 11; interaction data at Target Concentration 100 [2, 7]: 0; interaction data at Target Concentration 300 [2, 8]: 0; interaction data at Target Concentration 1000 [2, 9]: 5; interaction data at Target Concentration 1000 [2, 10]: 6
